Results on five molecules are retold here after patent US20170321196A1, “ANALYTICAL AND DIAGNOSTIC METHODS UTILIZING SHIGELLA FLEXNERI APYRASE” (priority 2014, published 2017).

Values joined by “and” are separate entries in the source; they are usually repeats but may differ in a detail not shown here. Equal values may be shown once. “Also recorded” adds a separate entry of the source. Some results are limits rather than exact numbers.

For series [1], the system named is rSFA. The series is described as follows: Inhibitor development: inhibition of rSFA. It is filed as biochemical, Shigella flexneri. As to the method:
After checking the rSFA inhibitory activity in buffer, it was verified with urine, where 10 μl were added with 80 μl of cell lysate reagent and 10 μmol/L of ATP. About 100 mM of MgSO4 and 1 mM of Na3VO4 were added in separate tubes and incubated for 10 min before measuring the light emission using firefly luciferase.

In series [2] the target is T1, firefly luciferase (Photinus pyralis, UniProt P08659).
T1 construct: purchased BioThema AB, Sweden ATP Kit SL
Put plainly: Inhibitor development: effect on luciferase. The series is classed as biochemical. The protocol:
After checking the rSFA inhibitory activity in buffer, it was verified with urine, where 10 μl were added with 80 μl of cell lysate reagent and 10 μmol/L of ATP. […]

Series [3] is described as follows: ATP degradation by apyrase in buffer, firefly luciferase bioluminescent assay. It is filed as biochemical. To be noted: for time to eliminate ATP: enzymes diluted 10× in Tris-EDTA Buffer; for ATP depletion rate: No serum (Negative control). As to the method:
(§1) Cuvettes contained 100 μL sample in a total volume of 1 mL containing ATP Reagent SL (BioThema AB, Sweden) in 0.07 mol/L Tris- EDTA Buffer and the reaction was started by injection of 10 μL 10 μmol/L ATP Standard. The initial apyrase activity was determined as described by Lundin and coworkers (Analytical Biochemistry 75, 611-620 (1976) and Methods in Enzymology vol 305, 346-370 (2000)) with some modifications. Bioluminescence was measured at every 10 s during 1 min, in the fully automatic 1251 Luminometer (LKB-Wallac, Turku, Finland). To this, 10 μl of 10 μmol/L ATP was added to determine the background ground luminescence. The temperature control was set to 25° C. and bioluminescence was measured from several cuvettes in parallel during 30 or 60 minutes and compared to residual ATP after various incubation times using rSFA and STA. This was repeated with rSFA and STA and a graph was plotted by keeping the ATP-degradation rate as internal control to determine the ATP-degradation efficiency of both of the enzyme sources.
(§2) Light emission from the firefly-luciferase reaction was measured at 25° C. in a 1251 Luminometer (LKB-Wallac; Finland) using the ATP Kit SL (BioThema AB, Sweden) according to the manufacture's instruction (in buffer experiment) or adding concentrated luciferase (in serum/urine experiments). Initially luciferase reaction follows first-order kinetics and the ATP Reagent SL in this kit produces light intensity proportional to the ATP concentration. A plot of the natural logarithm of the light intensity versus time yields a straight line with the slope representing the rate constant of the reaction. Starting concentration of STA, A6535, A6237 (Sigma-Aldrich) was adjusted similar to rSFA. BL-reaction was started automatically upon addition of 0.2 μmol/L ATP, and the light intensity was measured every 10 second for 10 minutes (in buffer experiment) or 30 minutes (in serum and urine experiments), in the reaction volume of 0.5 mL.

Series [4] is described as follows: Elimination of extracellular ATP in serum, bioluminescent assay. The series is classed as biochemical. Also noted: ATP depletion rate: unit not given beside the values. The settings on record: for time after which no further ATP elimination: 10% serum, FIG. 8; for time to complete hydrolysis of ATP and its analogues: 100% crude serum, FIG. 6A. The protocol: as §1, §2

The nature of series [5]: ATP elimination in urine, bioluminescent assay. It is filed as biochemical. To be noted: for time to complete ATP elimination: after 4 subsequent injections of 10 μL 10 μmol/L ATP. As to the method: as §2
The nature of series [6]: HPLC analysis of nucleotide degradation: ATP. To be noted: for time to complete conversion of ATP: STA to ADP and AMP, rSFA to AMP. The series is classed as biochemical. As to the method: (§3) To compare rSFA activity on nucleotides to that of STA, ATP, dATP, dTTP, dGTP and dCTP were incubated with the enzymes (same initial activity) for 5 min and 35 min and the resulting products were detected using high performance liquid chromatography (HPLC).
(§4) The dNTP Standard preparation was prepared to contain final concentration of 0.1 mM […]. Nucleosides ATP/dATP/dCTP/dGTP/dTTP were suspended in Tris-EDTA buffer and diluted 10 times with the mobile phase (70% acetonitrile, 30% ammonium acetate pH 5.35). The above-prepared nucleosides were individually incubated with equal amounts of rSFA and STA for 35 min at pH 7.75 and 5 μl of the mixture was injected into HPLC instrument (SeQuant ZIC®-pHILIC column, Merck Millipore) at a flow rate of 0.7 mL/min using a pump (Jasco PU-2089 Plus). Peaks were detected at 254 nm by UV-2075 Plus detector and the chromatographic separation was achieved using isocratic elution. Analysis was performed using Chrompass software, where each nucleotide/nucleoside was identified by comparison with retention time of the respective standards.

A short description of series [7]: HPLC analysis of nucleotide degradation: dATP. It is filed as biochemical. The protocol: as §3, §4
Series [8] is described as follows: HPLC analysis of nucleotide degradation: dTTP. The settings on record: STA to TDP and TMP, rSFA to TMP. It is filed as biochemical. As to the method:
as §3, §4

Series [9] is described as follows: HPLC analysis of nucleotide degradation: dCTP. The series is classed as biochemical. As to the method: as §3, §4
A short description of series [10]: Buffer optimization: rSFA activity after storage, bioluminescent ATP-elimination assay. The settings on record: stored in Buffer 3 about 10 months at +4° C.; compared with Buffer 1 and 2. The series is classed as physicochemical. The protocol: Equal concentration of rSFA was stored in Buffer 1(20 mM Tris, 1 mM EDTA, 1% BSA, 25 mM MgSO4, pH 7.5), Buffer 2 (20 mM Tris, 25 mM MgSO4, 2.5% BSA, pH 7.5) and Buffer 3 (20 mM HEPES, 500 mM NaCl, 25 mM MgSO4, pH 7.5) for about 10 months at 4° C. Bioluminescence activity assay was performed as described below to detect the activity of rSFA after storage.

Series [11] is described as follows: Hydrolysis of ADP and ATP/ADP mixture in urine. The series is classed as biochemical. To be noted: 10 μmol/L, FIG. 10. As to the method: as §2, with “BL-reaction was started automatically upon addition of 0.2 μmol/L ATP, and the light intensity was measured every 10 second for 10 minutes (in buffer experiment) or 30 minutes (in serum and urine experiments), in the reaction volume of 0.5 mL.” left out

The nature of series [12]: ATP degradation by apyrase in buffer, firefly luciferase bioluminescent assay. It is filed as biochemical.
Series [13] in a line: SFA activity across pH and in EDTA. The series is classed as biochemical.
The nature of series [14]: SFA stability to freeze-thaw and refrigerator storage. It is filed as physicochemical. To be noted: crude form, without addition of stabilizers. The protocol: The rSFA samples were kept at 4° C., then frozen and freeze-thawed to check its stability. An effort was made to see if the rSFA could be used to prepare a reagent for the depletion of extraneous ATP in biological samples.

Where [15] appears, read: Undiluted serum (100% crude serum).

T1 sequence (P08659 whole entry): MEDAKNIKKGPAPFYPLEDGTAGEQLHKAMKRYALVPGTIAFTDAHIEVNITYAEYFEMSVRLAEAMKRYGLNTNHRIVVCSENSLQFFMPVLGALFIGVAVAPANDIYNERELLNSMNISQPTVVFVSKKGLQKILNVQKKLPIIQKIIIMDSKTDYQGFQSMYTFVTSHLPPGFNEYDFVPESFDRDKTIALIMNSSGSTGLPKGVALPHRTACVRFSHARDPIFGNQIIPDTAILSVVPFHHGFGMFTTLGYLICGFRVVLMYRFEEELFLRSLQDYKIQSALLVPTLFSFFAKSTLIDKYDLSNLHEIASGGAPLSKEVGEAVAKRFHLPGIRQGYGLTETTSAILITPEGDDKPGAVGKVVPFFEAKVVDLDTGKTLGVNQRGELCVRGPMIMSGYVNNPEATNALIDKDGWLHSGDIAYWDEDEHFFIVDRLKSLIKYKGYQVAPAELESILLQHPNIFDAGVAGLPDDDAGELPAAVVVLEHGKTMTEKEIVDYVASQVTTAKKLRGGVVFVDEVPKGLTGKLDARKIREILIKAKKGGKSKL

With `[O]=[V]([O-])([O-])[O-]` [ortho-vanadate], the “inhibition of rSFA activity” value in [1] (1 mM ortho-vanadate (Na3VO4)) is on record as “completely inhibited”. For the same molecule, in [2] (1 mM ortho-vanadate), the “effect on luciferase activity” value is listed as “did not affect luciferase at all”.
As to `O=S(=O)([O-])[O-].[Mg+2]` [MgSO4], the “inhibition of rSFA activity” value was “showed inhibitory action” in [1] (100 mM MgSO4) and “completely inhibit” in series [1] (magnesium at 50 mM). Besides, the “effect on luciferase activity” value in series [2] (100 mM MgSO4) is reported as “affected the activity of luciferase”; in [2] (magnesium at 50 mM) it was “decreased the activity of luciferase”.

B1: rSFA: Recombinant Shigella flexneri apyrase with 6-His tag, amino-acid sequence SEQ ID NO: 4, expressed in E. coli BL21-A1 (protein, listed as Shigella flexneri)
chain: DIHMKTKNFLLFCIATNMIFIPSANALKAEGFLTQQTSPDSLSILPPPPAENSVVFQADKAHYEFGRSLRDANRVRLASEDAYYENFGLAFSDAYGMDISRENTPILYQLLTQVLQDSHDYAVRNAKEYYKRVRPFVIYKDATCTPDKDEKMAITGSYPSGHASFGWAVALILAEINPQRKAEILRRGYEFGESRVICGAHWQSDVEAGRLMGASVVAVLHNTPEFTKSLSEAKKEFEELNTPTNELTPHHHHHHRTMF
modifications: 6-His tag
On to B1, for which, in [3] (FIG. 4), the “rate constant of ATP elimination” value is 3.87 min⁻¹; the “time to eliminate ATP” value was ~10 min and ~15 min. The molecule further came in with an ATP depletion rate in series [3] of 3.98. Also, the “time after which saturated and ineffective in further reducing the ATP concentration” value in series [3] (in buffer, FIG. 7) is over 300 s. The same molecule had an ATP depletion rate in [4] (10% Diluted serum) of 1.774. Besides, in series [4], the “time after which no further ATP elimination” value was over 30 min; the “time to complete hydrolysis of ATP and its analogues” value is recorded as about 17 min. This molecule also registered an ATP depletion rate in series [4] (setting [15]) of 1.816. Moreover, the “time to complete ATP elimination” value in series [5] is “less than 3 min”. In addition, the “time to complete conversion of ATP” value in series [6] is recorded as “less than 5 min”. The “time to full conversion of dATP into dAMP” value in series [7] is “less than 5 min”. The “time to conversion of dTTP” value in [8] is reported as “less than 5 min”. Further, in series [9], the “time to complete conversion of dCTP into CMP” value is recorded as “less than 5 min”. Also, the activity after storage result in series [10] is listed as “particularly good activity; also recorded: very good activity”. For the same molecule, the “change of activity with ADP or mixture of ADP and ATP” value in series [11] was “no substantial difference; also recorded: not affected”.

B2: STA: Solanum tuberosum apyrase, commercially available potato apyrase from Sigma-Aldrich, SEQ ID NO: 9 (protein, listed as Solanum tuberosum)
chain: MLNQNSHFIFIILAIFLVLPLSLLSKNVNAQIPLRRHLLSHESEHYAVIFDAGSTGSRVHVFRFDEKLGLLPIGNNIEYFMATEPGLSSYAEDPKAAANSLEPLLDGAEGVVPQELQSETPLELGATAGLRMLKGDAAEKILQAVRNLVKNQSTFHSKDQWVTILDGTQEGSYMWAAINYLLGNLGKDYKSTTATIDLGGGSVQMAYAISNEQFAKAPQNEDGEPYVQQKHLMSKDYNLYVHSYLNYGQLAGRAEIFKASRNESNPCALEGCDGYYSYGGVDYKVKAPKKGSSWKRCRRLTRHALKINAKCNIEECTFNGVWNGGGGDGQKNIHASSFFYDIGAQVGIVDTKFPSALAKPIQYLNAAKVACQTNVADIKSIFPKTQDRNIPYLCMDLIYEYTLLVDGFGLNPHKEITVIHDVQYKNYLVGAAWPLGCAIDLVSSTTNKIRVASS
Take B2: the Initial activity in [3] is given as 4.12 Units/mg protein. In addition, the “time to eliminate ATP” value in series [3] (FIG. 4) is given as over 60 min. Besides, the ATP depletion rate in series [3] was 3.52; in series [4] (10% Diluted serum), 2.429; in series [4] (setting [15]) it was 0.5536. Besides, the “Remaining ATP activity after 1 min” value in series [3] (after 1 min) worked out at 1.1876%. In addition, in series [3] (after 17 min), the “Remaining ATP activity after 17 min” value stood at 0.0367%. The “amount of ATP remaining lower in STA samples compared to rSFA (factor)” value in series [3] (after one minute) is given as about 2. Further, the “time after which no further ATP elimination” value in [4] is 6 min. The “time to complete hydrolysis of ATP and its analogues” value in series [4] was about 45 min. Besides, the “time after which rate of action was hindered” value in [5] (FIG. 9) was 3 min. In addition, the “time to complete ATP elimination” value in series [5] was over 20 min. Besides, in series [6] (5 min incubation), the “cleavage of ATP to ADP and AMP” value is “only partially cleaved”. Further, in series [6], the “time to complete conversion of ATP” value turned out to be 35 min. Also, the dATP remaining result in [7] (after 35 min of incubation) is recorded as “more than 25%”. Further, the “time to conversion of dTTP” value in series [8] was 35 min. For the same molecule, the “portion of dCTP converted into CDP and CMP” value in series [9] (after 35 min) is “only half”. Moreover, the “change of activity with ADP or mixture of ADP and ATP” value in series [11] is listed as “considerably decreased”. The “Remaining ATP activity after 91 min” value in [12] amounted to 0.0228%.

B3: SFA: Apyrase derived from Shigella flexneri, recombinant or non-recombinant; native sequence SEQ ID NO: 10 (protein, listed as Shigella flexneri)
chain: MKTKNFLLFCIATNMIFIPSANALKAEGFLTQQTSPDSLSILPPPPAENSVVFQADKAHYEFGRSLRDANRVRLASEDAYYENFGLAFSDAYGMDISRENTPILYQLLTQVLQDSHDYAVRNAKEYYKRVRPFVIYKDATCTPDKDEKMAITGSYPSGHASFGWAVALILAEINPQRKAEILRRGYEFGESRVICGAHWQSDVEAGRLMGASVVAVLHNTPEFTKSLSEAKKEFEELNTPTNELTP
For B3, in [13], the “activity in high concentrations of EDTA” value is listed as “remains to be active” and the “pH range of very good activity” value was 7.0-7.5. In addition, the stability result in series [14] was “tolerates freeze-thaw-cycles and storage in solution at refrigerator temperatures”.
